The nanobody polyreactivity screen of Harvey et al. (2022)

Test: yeast display, Sf9 membrane polyspecificity reagent, FACS + sequencing; frameworks hold sequencing errors
Method in brief: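 A nanobody's polyreactivity label depends on the gate it was sorted from. Yeast display cells were stained with 10% biotinylated, detergent-solubilized Sf9 membrane reagent for 1 hour at 4 °C, enriched on streptavidin microbeads and sorted by FACS. The low and high (top ~1%) gates were set on anti-HA fluorescence for expression and streptavidin fluorescence for reagent binding.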

Sequence	polyreactivity (PSR sort gate)
QVQLVESGAGLVQAGGSLRLSCAATGSIVDWYVMGWYRQAPGKERELVAAITSTGSTYYADSVKGRFTISRDNAKNPVYLQMNSLKPEDTAVYYCATSFYVYPTYYIMDYWGQGTQVTVSS	low polyreactivity
QVQLVESGAGLVQAGGSLRLSCAPSGFIFFVNAMGWYRQAPGKERELVADITKIDGTTYYADSVKGRFTISRDNAKNTVYLQMNSLKPEDTAVYYCAAGYRQLSSVRDYDYWGQGTQVTVSS	low polyreactivity
QVQLVESGAGLVQAGGSLRLSCAPSGSIFAAYAMGWYRQAPGKESELVAAIDRGGSTDYADSVKGRFTISRDNAKNTVYLQMNTLKPEDTAVYYCAKGYDYYVRRYYYWGQGTQVTVSS	high polyreactivity
QVQLVESGAGLVQAGGSLRLTCAASARILGAYAMGWYRQAPGKERELVASISSGGRTYYADSVKGRFTISRDNAKNTVYLQMNSLKPEDTAVYYCNRDRNSGFYRRYGYWGQGSQVTVSS	high polyreactivity
QVQLVESGAGLVQAGGSLRRSCAASGGNFYYNVMGWYRQAPGKERELLAAIDTSGGNRYADSVKGRFTISRDNAKNTVYLQMNSLNPEDTAVYYSAVGAYWYFGIVSYGYDYWGQGTQVTVSS	low polyreactivity
QVQLVESGAGLVQAGGSRRLSCAASGFTFKSYAMGLYRQAAGKERELVAAINRSGGSTYYADSVKGRFTISRDYAMNTVYLQMNSLSPDDTAVYYCAAVKPPDYYYWGQGTQVTVSS	high polyreactivity
QVQLVESGAGLVQAGRSLRLSCASSGITIKRYAMGWYSQAPGKESELVAAINFGAGNTYYADSVKGRFTISRDNAKNPVYLQMNSLKPEDSAVYYCATTARHRYGEYYYWGLGTQVTVSS	high polyreactivity
QVQLVESGAGLVQARGSLRLTCAASGGTFLSYAKGWYRQAPGKERELVAGISSGGSTNYADSVKGRFTISRDNAKNTVYLQMNSLKPEDTAVYYCAADSFPSEFDYWGQGTQVTVSS	low polyreactivity
QVQLVESGEGIVQAGGSLRLSCAASGSIFGIYVMGWYRQAPGKERELVAAITFGGGSTYYADSVKGRFTISRYNAKNSVYLKMNRLKPEDTSVYYCAAKSYDEGLYRRPRDYWGQGTQVTESS	high polyreactivity
QVQLVESGEGLVQAGGSLRLSCAASGRIFAWYAMGWYRQAPGKERELVAAIDRGDNTYYADSVKGRFTISRDNAKNTGYLQMNSLKPEDTAVYYGFYYGAHEPYGYWGQGTQVTVSS	low polyreactivity
QVQLVESGGAIVQAGGSLRLSCAASGRIYYPYAMGWYRQAPGKERELVAAISSGVSTNYADSVKGRFTITRDNAKNTVYLQMNSLNPEDTAVYYCARTYFRFSSSYYKAVSHGFWGQGTQVTVSS	high polyreactivity
QVQLVESGGALLQAGGSLRLSCAASGRTFPGYGMGWYRQAPGKERELVAVITSNGGITYYADSVKGRFTISRDNAKNTVYLQMNSLKPEDTAVYYCAAYEIYYEFDSWGQGTQVTVSS	low polyreactivity
QVQLVESGGALVHAGGSLRLTCAASGYTFRYYAMRWYRQAPGKERELVARINRSGGSTYYADSVKGRFTISRDNAKNTVYLQMNSLKPEDTAVYYCNRDYGWHYSYEYWGQGTQVTVSS	high polyreactivity
QVQLVESGGALVQAGCSLRLSCAASGITFAPYAKGWYRQAPGKEREMVAGINTGGSTYYADSVKGRFTISRDNAKYTVYLQMNSLKPEDTADYYCATESYPADQDIPGSDYWGQGTQVTVSS	low polyreactivity
QVQLVESGGALVQAGGSHRLSCAASGIIFDYNAAMGWYRQAPGKERELVAAISISGGSTYYADSVKGRFTISRDNAKNTVYLQMNSPKPEDTAVSYCAAVNYEWNYGYDYWGPGTQVTVSS	low polyreactivity
QVQLVESGGALVQAGGSLRLRCAASGRIFRLYAMGWYRQAPGKERELVAAISSSGADTYYADSVKGRFTISSDNAKNTVDLQMNSLKPEETAVYYCAARTWHRYDYFGQGTQVTVSS	high polyreactivity
QVQLVESGGALVQAGGSLRLSCAASARTFIQNGMGWNRQEPGKERELVAAISYRGGTTSYADSVQGRFTISRDNAKNTVYLQMNSLKPEVTAVYYCAKRYTYYSYDYWGQGTQVTVSS	high polyreactivity
QVQLVESGGALVQAGGSLRLSCAASGFTLSAYAKGWYRQAPGKERELVAGISYTGGRTYYADSVKGRFTISRDNAKNTVYLQMNSLKPEDTAVYYCNKAWSGYYKYGYWGQGTQVTVSS	low polyreactivity
QVQLVESGGALVQAGGSLRLSCAASGGTFFSNAMGWYRQAPGKERELVAAISNDDGDTYYADSVKGRFTISRDNAKNTVYLQMNSLKPEDTAVYYCAVDYSYLHRTTFEYWGQGTQVTVSS	low polyreactivity
QVQLVESGGALVQAGGSLRLSCAASGRIFGVNAIGWYRQAPGKERELVADISSGGSTNYADSVKGRFTISRDNAKNTVYLQMNSLKPEDTAVYYCAARTLRAGYRASGVRRDYWGQGTQVTVSS	high polyreactivity
QVQLVESGGALVQAGGSLRLSCAASGRIFVVNAMGWYRQAPGKERELGAAISIRGTRTYYADSVKGRFTISRDNAKNTVYLQMNSLKPEDTAVYYCAADASYTEGMDYWGQGTQVTVSS	high polyreactivity

Sequence	polyreactivity (PSR sort gate)
QVQLVESGGALVQAGGSLRLSCAASGRIIYKNAMRWYRQAPGKETELVATITYSDGTTYYADSVKGRFTISRDNAKNTVYLQMNSLKPEDTAVYYCAAQTDSVESDYWGQGTQVTVSS	low polyreactivity
QVQLVESGGALVQAGGSLRLSCAASGRTFNRYGMGRYRQAPGEERELVASITSGGSTNYADSVKGRFTISRDNAKNTVFLQMNSLKPEDTAVYYCAKRSIGRYPRTYDYWGQGTKVTVSS	low polyreactivity
QVQLVESGGALVQAGGSLRLSCAASGRTFTFNTMGWYRQAPGKERELVAAIDGDGTTNYADSVKGRFTISRDNAKNTVYLLMNSLKPEDTAVYYCAADFLYSFWYEPTFDYCGQGTQVTVSS	low polyreactivity
QVQLVESGGALVQAGGSLRLSCAASGSISTYAIGWYRQAPGKERELVAAMNKRGGSTYYADSVKGRFTISRDNAKNTVDLQMNSLKPADTAVDYCAAGLAHSAAFDYWGQGTQVTVSS	low polyreactivity
QVQLVESGGALVQAGGSLRLSCAASGSTFPYYAMGWYRQAPGKERELVAAISRGGGITYYADSVKGRLTISRDNAKNTVYLQMISLKPEDTAVYYCAARGFWWPYTYYYWGQGTQVTVSS	high polyreactivity
QVQLVESGGALVQAGGSLRLSCAASGSTFRYDMGWYRQAPGKERELVAAITWGGVSTYYADSVKGRFTISRDNAKNTVYLQMNSLKPEDTAVYYCNVVISLQQGDYWGQGTQVTVSS	low polyreactivity
QVQLVESGGALVQAGGSLRLSCAASGSTFYGYAMGWYRQATGKERELVASITTRGGRTNYADSVKVRFTISRDNAKNTVYLEMNSLKPEDNSVYYCATYSYVTRYARWGEFDYWGQGTQVTVSS	high polyreactivity
QVQLVESGGALVQAGGSLRLSCAASGSTFYRNAMGWYRPAPGKERELVATISSSDGSTYYADSVKGRFTISRDNAKNTVYVQMNSLKPEDTAVYYCNADPISSGSVANFQYDYCGQGTQVTVSS	low polyreactivity
QVQLVESGGALVQAGGSLRLSCAASGSTMGWYRQAPGKVREFVAAIRWIGGGTYYADSVKGRFTISRDNAKNTVYLQMNSLKPEDTGVYYCAARLSVAWVGYDYWGQGTQVTVSS	low polyreactivity
QVQLVESGGALVQAGGSLRLSCAASGSTSYTNAMGLYRHAPGKEREFVASISLSAGSTYYADSVKGRFKISRDNAKNTVYLQMNSLKPEDTAVYYCASESVAILGLVYPKGYGYWGQGTQVTVSS	low polyreactivity
QVQLVESGGALVQAGGSLRLSCAASGYTFCYNAMGWYRQAPGKEREFVAAISWSGGSTYYADSVKGRFTISRDNAKNTVYLQMYSLKPEDTAVYYCAVEGVYWYVSMYYWGQGTQVTVSS	low polyreactivity
QVQLVESGGALVQAGGSLRLSCAASGYTFSKYAMGWYRQAPGKERELVAAISKRGGSTSYADSVKGRFTISRDNAKNTVYLQMNILKPEDTAVYYCNAREWSRTFDYWGQGSQVTVSS	high polyreactivity
QVQLVESGGALVQAGGTLRLSGAASGIIFDGYAMGWYRQAPGKEREFVAVISSSGGTTYYADSVKGRFTISRDNAKNTVYLQMNRLKPEDSAVYYCACVYVSLWPSATYWSGFGYWGQGTKVTVSS	low polyreactivity
QVQLVESGGALVQARGSLRLSSAASGSIFPFYAMPSYRQAPGKERELVAAISDRGGSTYYADSVKGRFTISRDNAKNTVYLQMNSLKPEDTAVYYCAVDGYGWGSSSSWFRSLYDYWGQGTQVTVSS	low polyreactivity
QVQLVESGGALVQEGGSLRLSCAASGITFAGNAMGWYRQAPGKERELVATITSDGNTNYAVSVKGRFTISRDNAKNTVYLQMNSLKPEDTAVYYCNAEGENRRDRYDYWGQGTQVTVSS	low polyreactivity
QVQLVESGGCLDQAGGSLRLSCAASGRIFDHYAMGWYRQAPGKEMELVAAITRSGGITYYADSVKGRFTISRDNAKNTVYLQMNSLKPEDTAVYYCAALSYRYTDKFDYWGQGTQVTVSS	low polyreactivity
QVQLVESGGCLDQAGGSLRLSCAASGSIFYYYTMGWSRQAPGKEREFVATITYSGGSTYYADSVKGRITISRDNAKYTVYLQMNSLKPEDTAVYYCNARPRYYDWVDYWGQGTQVTVSS	low polyreactivity
QVQLVESGGCLFQAGGSLRLICAASGSISGLYAIGWYRQAPGKERELVARIRWRGDSTYYADSVKGRFTISRDNAKNTVYLQMNSLKPEDTAVYYCAASAYSGKVNKYNYWGQGTQVTVSS	high polyreactivity
QVQLVESGGCLIKEVGSLRLSCAASGNIFVFYGKGWYRQAPGKERELVAAIDSGGSSTYYADSVKGRFTISRDNAKNTVYLKMKSLKPEDTAFDYCSARPYYSWNYDYWGQGTQVTVSS	low polyreactivity
QVQLVESGGCLLQAGATLRLSCASSGSIFNGKAMGWYRQAPGKERELVAANTWSGGSTYYADSVKGRFTISRDNAKNSVYLQMNSLKPEDTAVYYCNTYTYRGYDYWGQGTQVTVSS	high polyreactivity
